According to patent publication US9809627B2, “Cyclized transthyretin peptide and methods of use therefor” (Wisconsin Alumni Research Foundation, priority 2014, dated 2017):
“Also recorded” adds a separate entry of the source. Where no end group is shown, it is not given here. [ ]: non-standard residue; d: D form.

How the values were obtained:
Aβ (1-40) [1] = target: T1, Aβ (1-40) (Homo sapiens, UniProt P05067); test: Transmission electron microscopy of Aβ aggregates; assay type: biochemical; conditions: 48 h at 37° C., 28 μM Aβ, 2.8 μM peptide
T1 construct: Aβ (1-40) was purchased from Anaspec, Inc. (Fremont, Calif.) as lyophilized powder; purchased Anaspec, Inc. (Fremont, Calif.)
Experimental: (§1) Aβ (1-40) was purchased from Anaspec, Inc. (Fremont, Calif.) as lyophilized powder. For dynamic light scattering, ThT fluorescence assay, TEM, NTA measurement and filtration/sedimentation assay, Aβ was dissolved in 50% ACN, re-lyophilized, and reconstituted in 8M urea at 12 mg/mL. Aβ stock was then aliquoted, snap-frozen in ethanol with dry ice, and stored at −80° C. For PICUP and proteolytic fragmentation analysis, lyophilized Aβ was dissolved in prechilled hexafluoroisopropanol (HFIP, Acros Organics, Geel, Belgium), aliquoted, dried and stored at −20° C. as previously described (Cho et al., 2014). Aβ sample was prepared right before use by dissolving dried peptides in 50 mM NaOH and diluting into phosphate-buffered saline (PBSA) (10 mM Na2HPO4/NaH2PO4, 150 mM NaCL and 0.02% NaN3 (pH 7.4)) to 30 μM as previously described (Cho et al., 2014).
Aβ alone (28 μM) or with peptides (G16 or CG3 at 2.8 μM) were prepared in PBSA and incubated for 48 hr at 37° C. A drop of sample was placed on a pioloform-coated grid and stained with methylamine tungstate stain. Images were taken with a Philips CM120 scanning transmission electron microscope (FEI Corp., Eindhoven, The Netherlands).

Aβ (1-40) [2] = target: T1, Aβ (1-40); test: Thioflavin T (ThT) fluorescence assay of Aβ aggregation; assay type: biochemical; conditions: 28 μM Aβ; for ThT fluorescence intensity of Aβ with peptide: 2.8 μM peptide; for inhibition of ThT fluorescence increase: up to 48 h, 2.8 μM peptide or mTTR
Experimental: as §1
ThT stock solutions were prepared in PBSA and filtered through 0.22 μm filter. The concentration of ThT was measured using an extinction coefficient of 26,620 M^−1 cm^−1 at 416 nm and the stock solution was diluted to 10 μM in PBSA prior to the measurement. Aβ alone (28 μM) and with peptides (2.8 μM) or mTTR (2.8 μM) were prepared in PBSA and incubated for 48 hr at 37° C. After 1, 5, 24 and 48 hr of incubation, 10 μL of each sample was mixed with 130 μL of 10 μM ThT and analyzed. ThT fluorescence emission was measured using a QuantaMaster spectrofluometer (PTI, Birmingham, N.J.), with excitation at 440 nm and emission spectra recorded from 460 to 500 nm. Three serial spectra were averaged for each sample and the background signal of ThT in PBSA was subtracted from the averaged data. Fluorescence intensity at a wavelength of 480 nm was compared.

[3] = Peptide self-aggregation by light scattering; assay type: physicochemical; conditions: 80 μM, 37° C., after 1 hr of incubation
Experimental: To further probe for self-aggregation, G16, LG3, and CG3 were incubated at 80 μM at 37° C. and analyzed by light scattering.

[4] = tested on: primary cortical neuronal cells; test: In vitro cellular toxicity of Aβ (1-42), MTS assay; assay type: cell-based, mice; conditions: for protection against Aβ toxicity: 10 μM Aβ
Experimental: Aβ toxicity was assessed as described in detail previously (Yang et al., 2013; Cho et al., 2014). Briefly, the primary cortical neuronal cells were cultured from embryonic 15.5 day mice and were maintained in neurobasal media till they are matured. Aβ (1-42) (American Peptide, Sunnyvale, Calif.) at 1 mg/mL in PBS was diluted to 10 μM without or with peptides as previously described (Cho et al., 2014). At 6 days in vitro (DIV), the cells were treated with either Aβ alone or Aβ incubated with different doses of mTTR and peptides. Appropriate vehicle and controls were run along with the treatments. At 8 DIV, the neurons were incubated with MTS reagent (Promega) as per manufacturer protocol for 2-3 hrs and absorbance was measured at 490 nm.

Aβ (1-40) [5] = target: T1, Aβ (1-40); test: Filtration/sedimentation assay of Aβ aggregation; assay type: biochemical
Experimental: as §1
Aβ alone (30 μM) or with CG3 (3 μM) was prepared in PBSA and incubated for 24 hr at 37° C. For filtration, 175 μL of sample was filtered through 0.45 μm filter. For sedimentation, 100 μL of sample was transferred onto a separate tube and centrifuged for 30 min at 19,500 ref. The supernatant (80%) was removed. Concentrations of untreated, filtered, and centrifuged samples were measured by BCA assay (Pierce).

Aβ (1-40) [6] = target: T1, Aβ (1-40); test: Proteolytic fragmentation assay of Aβ with peptides (Proteinase K); assay type: binding; conditions: 3:1 molar excess of peptides, detection by 4G8
Experimental: as §1
The proteolytic fragmentation assay of Aβ with peptides was performed as previously described in detail (Cho et al., 2014). Briefly, Aβ alone (20 μM) or with peptide (60 μM) was incubated for 24 hr at 37° C. Proteinase K (Promega, Madison, Wis.) was added to the samples at a final concentration of 0.5 μg/mL and samples were dotted onto a 0.45 μm nitrocellulose membrane (Pierce) after incubation for 0, 5, 10, 20, 30, 40, 50, 60, 90 and 120 min. Membranes were then reacted with monoclonal antibodies against Aβ (6E10, Covance, against Aβ (3-8) and 4G8 against Aβ (18-22)) and visualized.

Aβ (1-40) [7] = target: T1, Aβ (1-40); test: Dynamic light scattering of Aβ aggregate growth; assay type: biochemical; conditions: 140 μM Aβ
Experimental: as §1
Aβ stock in 8M urea prepared as stated above was thawed and sonicated for 2 min before being diluted into PBSA. Aβ alone (140 μM) or mixed with peptides (14 μM) was filtered through […] filter directly into a light scattering cuvette and placed into a bath of the index-matching solvent decahydronaphthalene with temperature controlled to 37° C. Light scattering data were collected using a Brookhaven BI-200SM system (Brookhaven Instruments Corp., Holtsville, N.Y.) and an Innova 90C-5 argon laser (Coherent, Santa Clara, Calif.) operating at 488 nm and 150 mW. The average scattering intensity at 90° was measured over 10 hr and data were normalized to the total mass concentration. The z-averaged hydrodynamic diameter was determined from the autocorrelation function using the method of cummulants.

Aβ (1-40) [8] = target: T1, Aβ (1-40); test: Photoinduced cross-linking (PICUP) of Aβ and peptides; assay type: binding; conditions: for interaction with Aβ (shift in cross-linked Aβ size distribution): pre-aggregated Aβ, 10:1 molar excess of Aβ, Western blot 4G8
Experimental: as §1
Aβ prepared with HFIP/NaOH treatment at 30 μM as described was mixed with peptides to a final concentration of 24 μM Aβ and 2.4 μM peptides. Aβ stock was used immediately (freshly prepared) or after incubation for 24 hr at 37° C. (1 day pre-aggregated). Samples of Aβ with and without peptides were incubated for 1 hr at 37° C. and cross-linked by photo-induced cross-linking method as previously described (Cho et al., 2014). Cross-linked samples were then separated on a 10-20% Tris-Tricine gradient gel (Iinvotrogen, Carlsbad, Calif.), transferred onto a 0.2 μm poly(vinylidene difluoride) (PVDF) membrane and detected by monoclonal mouse anti-Aβ antibody 4G8 (Covance, Princeton, N.J.) as previously described (Cho et al., 2014).

Aβ toxicity = conditions: cited from earlier work
[9] = Peptide self-association by PICUP cross-linking and gel electrophoresis; assay type: physicochemical; conditions: PICUP cross-linking, gel electrophoresis
Experimental: Peptides were also cross-linked by PICUP and analyzed for self-association. Twenty microliters of peptides at 36 μM in PBSA was incubated for 1 hr at 37° C. and cross-linked. Cross-linked samples were then heated at 95° C. for 5 min and separated on a 10-20% Tris-Tricine gradient gel. Peptides were visualized by silver staining (SilverStain Kit, Pierce, Rockford, Ill.).

Substance | light scattering of peptide alone [3] | effect on Aβ degradation by protease (Aβ (1-40) [6]) | effect on Aβ aggregation (hydrodynamic diameter, total scattered intensity) (Aβ (1-40) [7]; 14 μM peptide) | interaction with Aβ (shift in cross-linked Aβ size distribution) (Aβ (1-40) [8]) | inhibition of ThT fluorescence increase (Aβ (1-40) [2]) | protection against Aβ toxicity ([4]; 10 μM peptide) | self-association by PICUP [9] | inhibition of Aβ toxicity (summary) [4] | further results
PRRYTIAALLSPYSWS [G16, 16-mer linear peptide, TTR residues 102-117, Y116W, reference compound] | scattered light above background | Aβ degradation was delayed; also recorded: most effective in inhibiting degradation | increased the size of aggregates of Aβ | interact with Aβ |  |  |  |  | morphology of Aβ aggregates by TEM (Aβ (1-40) [1]): still a large number of fibrils; ThT fluorescence intensity of Aβ with peptide (Aβ (1-40) [2]; after 5 hr): remained low; ThT fluorescence intensity of Aβ with peptide (Aβ (1-40) [2]; after 24 hr): ThT-positive species were detected; protection against Aβ toxicity ([4]; highest dose tested): small but significant protection; effect on fraction of Aβ aggregates removable by filtration or sedimentation (Aβ (1-40) [5]): reduce the fraction of Aβ aggregates that can be removed by filtration or sedimentation; intensity of scattered light of Aβ-peptide mixture (Aβ (1-40) [7]; 14 μM peptide): enhanced the intensity of scattered light similarly; mean hydrodynamic size of Aβ-peptide mixture (Aβ (1-40) [7]; after 5 hr, 10:1 molar excess of Aβ, 37° C.): about 120 nm; interaction with freshly prepared versus pre-aggregated Aβ (Aβ (1-40) [8]; freshly prepared or 1 day pre-aggregated Aβ): showed no such selectivity; fold less effective than full-length TTR at protecting cells from Aβ toxicity (Aβ toxicity): about 25 fold
PRRYTIAALLSPYSWSDYKDDDDK [GF, linear peptide G16 with a C-terminal FLAG tag] |  | Aβ degradation was delayed | little to no effect on Aβ aggregation | interact with Aβ | unable to inhibit the ThT fluorescence increase | no protective effect | some lower-molecular-weight multimers but none of the larger multimers |  | protection against Aβ toxicity ([4]; highest dose (40 μM)): modest protection
SKVVTPPRYTIAKLLSPYSYSQ (not fully specified; also: cyclic (type not given here)) [SEQ ID NO: 17] |  |  |  |  |  |  | significantly less self-association than SEQ ID NO: 1 |  | 
SKVVT^DPPRYTIAALLSPYSYSQ [LG3] (SKVVT[dP]PRYTIAALLSPYSYSQ) [non-cyclized 22-mer, TTR residues 104-123 grafted onto DPro-Pro template] | did not scatter light above background | Aβ degradation was delayed | little to no effect on Aβ aggregation | interact with Aβ; also recorded: weaker compared to CG3 | unable to inhibit the ThT fluorescence increase | no protective effect |  |  | 
SKV^DPPTIAALLSPYSYSQ [CG2] (cyclo(SKV[dP]PTIAALLSPYSYSQ)) [cyclic 18-mer of TTR residues 106-121 grafted onto DPro-Pro template] |  | did not have any effect on the time course of degradation | did not affect Aβ aggregation; also recorded: nor did they affect Aβ aggregation | do not show signs of interaction with Aβ |  | no protective effect |  | nor did they affect Aβ aggregation or inhibit Aβ toxicity | 
SKV^DPPTIAALLSPYSYSQ [LG2] (SKV[dP]PTIAALLSPYSYSQ) [non-cyclized 18-mer, TTR residues 106-121 grafted onto DPro-Pro template] |  |  | nor did they affect Aβ aggregation | do not show signs of interaction with Aβ |  |  | oligomer distribution was shifted towards lower molecular weight | nor did they affect Aβ aggregation or inhibit Aβ toxicity | 
